Results taken from publication PMC8965725.

Target: NRP-1 expressed on GL261 cells (mouse (endogenous in GL261)) (UniProt P97333)

cellular FITC fluorescence of GL261 cells incubated with FITC-labeled NPs, flow cytometry, normalized to cells without treatment (cellular internalization): 42%
Substance: RGE fusion protein nanoparticles (RGE peptide-linker-HFn) (designed binder)
